Target: T1, recombinant human insulin receptor (human, UniProt P06213-2 28-944, limits assumed)
T1 construct: also called rhIR; human IR
Experiment: direct ELISA, rhIR coated at 1 µg/ml, hybridoma supernatant, anti-mouse IgG-HRP detection
Protocol: Further characterizations of the 816C12 antibody were then performed using hybridoma supernatant such as rhIGF-1R or rmIGF-1R or rhIR ELISA. In all direct ELISAs, proteins of interest were immobilized (1 μg/ml) to the bottom of each well. After saturation, hybridoma supernatants were added to the wells. After a 1-hour incubation period and a washing step, a solution of goat anti-mouse IgG—HRP labelled polyclonal antibody was used for detection, prior to the addition of the TMB substrate. The reaction was stopped with a 1M […] solution before reading the OD with a spectrophotometer at a 450 nm wavelength.

T1 sequence (P06213 other isoform, or with tags, fused parts or gaps limits assumed): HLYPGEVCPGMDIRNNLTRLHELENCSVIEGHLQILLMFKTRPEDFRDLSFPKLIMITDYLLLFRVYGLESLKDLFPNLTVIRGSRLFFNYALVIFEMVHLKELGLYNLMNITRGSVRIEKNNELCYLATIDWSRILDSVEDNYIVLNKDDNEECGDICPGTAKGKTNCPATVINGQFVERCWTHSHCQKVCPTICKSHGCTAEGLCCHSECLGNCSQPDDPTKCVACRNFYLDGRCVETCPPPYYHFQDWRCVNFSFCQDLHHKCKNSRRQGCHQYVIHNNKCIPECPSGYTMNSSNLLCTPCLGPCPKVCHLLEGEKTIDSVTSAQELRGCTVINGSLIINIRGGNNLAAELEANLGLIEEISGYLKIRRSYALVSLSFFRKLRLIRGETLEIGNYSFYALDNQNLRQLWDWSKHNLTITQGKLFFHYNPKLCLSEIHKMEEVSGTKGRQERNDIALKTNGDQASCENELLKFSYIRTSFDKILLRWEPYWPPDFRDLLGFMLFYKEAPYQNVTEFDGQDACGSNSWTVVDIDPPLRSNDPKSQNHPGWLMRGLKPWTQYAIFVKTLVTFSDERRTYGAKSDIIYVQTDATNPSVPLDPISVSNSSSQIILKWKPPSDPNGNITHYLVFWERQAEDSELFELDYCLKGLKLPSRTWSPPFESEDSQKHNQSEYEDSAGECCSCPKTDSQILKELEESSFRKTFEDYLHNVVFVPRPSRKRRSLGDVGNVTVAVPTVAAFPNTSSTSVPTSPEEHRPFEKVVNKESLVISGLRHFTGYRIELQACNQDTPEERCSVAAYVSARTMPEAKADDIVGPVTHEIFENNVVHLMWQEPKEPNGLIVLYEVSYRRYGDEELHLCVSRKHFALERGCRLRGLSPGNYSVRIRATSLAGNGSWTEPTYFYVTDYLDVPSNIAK

binding result: no binding (tested: 5 µg/ml)
B1: 816C12 anti-IGF-1R monoclonal antibody (antibody, V domains shown)
VH: EVQLQQSGPELVKPGASVKMSCKASGHTFTSYVLHWMKRKPGQGLEWIGYINPHNDVTKYNENFKGKATLTSDKYSSTVYMEVSSLTSEDSAVYYCVSTAYYGNGRYFDVWGAGTTVTVSS
VL: DIQMTQTTSSLSASLGDRVTISCRASQDINNYLNWYQQKPDGTVKLLIYYTSRLHSGVSSRFSGSGSGTDYSLTISNLEQEDIATYFCQQGNTLPWTFGGGTKLEIK
notes: Murine monoclonal antibody from a Balb/C hybridoma; It was used as hybridoma supernatant in the ELISAs and at 5 ug/ml in IHC; also called I-4894; antibody secreted by hybridoma CNCM I-4894

Source: patent US20210018508A1 (PIERRE FABRE MEDICAMENT, published 2021)
